Source: IntAct's records for PubMed 24034254

B1: Proto-oncogene tyrosine-protein kinase LCK (Mus musculus), P06240 (parent)
chain: MGCVCSSNPEDDWMENIDVCENCHYPIVPLDSKISLPIRNGSEVRDPLVTYEGSLPPASPLQDNLVIALHSYEPSHDGDLGFEKGEQLRILEQSGEWWKAQSLTTGQEGFIPFNFVAKANSLEPEPWFFKNLSRKDAERQLLAPGNTHGSFLIRESESTAGSFSLSVRDFDQNQGEVVKHYKIRNLDNGGFYISPRITFPGLHDLVRHYTNASDGLCTKLSRPCQTQKPQKPWWEDEWEVPRETLKLVERLGAGQFGEVWMGYYNGHTKVAVKSLKQGSMSPDAFLAEANLMKQLQHPRLVRLYAVVTQEPIYIITEYMENGSLVDFLKTPSGIKLNVNKLLDMAAQIAEGMAFIEEQNYIHRDLRAANILVSDTLSCKIADFGLARLIEDNEYTAREGAKFPIKWTAPEAINYGTFTIKSDVWSFGILLTEIVTHGRIPYPGMTNPEVIQNLERGYRMVRPDNCPEELYHLMMLCWKERPEDRPTFDYLRSVLDDFFTATEGQYQPQP

Variants of: B1
Details: with cd4_mouse Cd4, P06332
Sequence of cd4_mouse Cd4, P06332 (P06332 whole entry): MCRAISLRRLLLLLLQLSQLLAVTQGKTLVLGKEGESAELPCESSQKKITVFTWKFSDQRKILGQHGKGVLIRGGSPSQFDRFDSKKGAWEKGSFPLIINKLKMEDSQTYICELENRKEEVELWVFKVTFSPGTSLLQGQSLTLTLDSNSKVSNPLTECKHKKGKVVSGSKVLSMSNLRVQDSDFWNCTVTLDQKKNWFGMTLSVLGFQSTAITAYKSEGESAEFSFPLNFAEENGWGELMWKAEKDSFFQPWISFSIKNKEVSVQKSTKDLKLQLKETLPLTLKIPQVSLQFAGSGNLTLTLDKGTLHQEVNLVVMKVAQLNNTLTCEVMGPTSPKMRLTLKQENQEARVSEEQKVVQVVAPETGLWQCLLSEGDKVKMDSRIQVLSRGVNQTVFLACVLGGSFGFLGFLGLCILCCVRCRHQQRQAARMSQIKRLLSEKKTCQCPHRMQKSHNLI

effect of a mutation on the interaction	Variant
disrupting interaction strength	C20A;C23A

Variants of: B1
Details: with cd8a_mouse Cd8a

effect of a mutation on the interaction	Variant
disrupting interaction strength	C20A;C23A
